Measured values reported in publication PMC12236258.

Target: SpyCatcher003-A49C labelled with Alexa 555 maleimide
Experiment: FRET or BRET; inline mixing cell, SpyTag003-sfGFP (donor) and SpyCatcher003-AF555 (acceptor) each at 10 uM, equimolar, delays 0.02-10 s, emission at 515 nm, double exponential fit; observed rates at one concentration

SpyTag003-sfGFP was tested, and the fast rate of the double exponential FRET decay (observed, 10 uM each) was 143 s⁻¹, the percent reduction of the donor fluorescence by FRET (20 ms to 10 s after mixing) was over 50% and the slow rate of the double exponential FRET decay (observed, 10 uM each) was 7 s⁻¹.
